For the test, the target named is NRP-1 expressed on GL261 cells (mouse (endogenous in GL261)) (UniProt P97333).

“RGE fusion protein nanoparticles (RGE peptide-linker-HFn) (designed binder)” displayed a cellular FITC fluorescence of GL261 cells incubated with FITC-labeled NPs, flow cytometry, normalized to cells without treatment (cellular internalization) of 42%.

The values are drawn from publication PMC8965725.
